Data as given in patent US20100273983A1, “METHOD OF PURIFYING PEPTIDES BY SELECTIVE PRECIPITATION” (The University of Queensland, priority 2007, published 2010).

How the values were obtained:
Type in all cases: physicochemical
[1] = Ethanol precipitation of AM1-spiked E. coli cell lysate supernatant containing MBP; AM1 in supernatants and pellets by RP-HPLC
Protocol: For the precipitation with ethanol the cell lysate supernatant was spiked with chemically synthesized AM1 peptide to a final concentration of 0.286 μg AM1 per μL. AM1 was custom synthesized by Genscript (Piscataway, USA). The purity was >95% by reversed-phase high performance liquid chromatography. The peptide was stored in a lyophilized form and was dissolved in 0.1% v/v TFA prior to use (cAm1=1 mg/mL).
For the ethanol precipitation experiment, 420 μL of AM1 (in 0.1% v/v TFA, 1 μg/μL) was added to 1050 μL of lysate supernatant and mixed by vortexing. The samples were prepared with different ethanol concentrations ranging from 50-75% (v/v).
The samples were incubated on a roller mixer at speed adjustment 7.5 for 17 h. The tubes were centrifuged at 15,000 rpm for 10 min. […] The protein present in the urea dissolved pellets, as well as the supernants was directly analyzed by Bradford and SDS-PAGE.
For quantitative analysis of AM1 peptide in the supernatants and pellets, reversed-phase high performance liquid chromatography (RP-HPLC) was used with an analytical C18 column (Jupiter 00F-4053-E0, Phenomenex, UK). […]
The retention time of AM1 at the above mentioned elution gradient and flow rate was tR=21.5 min. […] The following equation was used to determine the amount of AM1 in the supernatants and pellets as a function of the peak area detected by RP-HPLC: Detected peak area/1207925=μg of AM1 peptide.

[2] = Solvent (ethanol/acetone) precipitation of TEVp cleaved Trx-P11-2 homogenate; peptide in supernatants and pellets by HPLC
Protocol: Homogenate was heat-treated by incubating samples in a water bath at 55° C. for 15 min. The effect on the solubility of the fusion protein was assessed by SDS-PAGE and HPLC analysis of heat-treated homogenate before and after centrifugation (10000×g, 10 min). The effect on the stability of the P11-2 peptide was analyzed by comparing cleavage reactions (at 0, 1, 2 and 3 h) with a final substrate concentration of 160 μM Trx-P11-2 and 8 μM TEVp, prepared with heat-treated and non heat-treated homogenate. Conditions were optimized by evaluating reactions prepared with 8 μM TEVp and 160, 240 and 320 μM Trx-P11-2 after 0, 1, 2 and 3 h. The effect of salt on enzyme activity was assessed by analyzing cleavage reactions prepared with 8 μM TEVp and 320 μM Trx-P11-2, that were supplemented with either 50, 150 or 250 mM NaCl. These cleavage reactions were analyzed at 0, 1, 2 and 3 h by SDS-PAGE and HPLC. After 3 h, ethanol was added to a final concentration of 75% (v/v) and samples were incubated at room temperature for 10 min before centrifuging at 10 000×g for 5 min. The supernatants were diluted with water to reduce the percentage of ethanol and analyzed by HPLC.
All precipitation experiments were performed with the same batch of Trx-P11-2, cleaved with a 40:1 (substrate:enzyme) molar ratio, a substrate concentration of 320 μM (5.12 mg ml^−1) and in the presence of 250 mM NaCl. The precipitation samples were centrifuged for 5 min at 10000×g, and the supernatants collected and analyzed by HPLC to quantify the peptide present. The pellets were resuspended in 6 M guanidine hydrochloride to the same volume as the supernatants, and analysed by HPLC. Acetone and ethanol precipitations were performed using HPLC grade ethanol and acetone, which was added to samples to final concentrations of 20, 40, 60, 65, 70, 75, 80, and 85% (v/v) before incubating for 10 min at room temperature and centrifuging for 5 min at 10000×g. The supernatants were collected and dried using an RVC 2-18 speed-vac (Christ, Osterode, Germany), the pellets were air-dried and both were resuspended in 6 M guanidine hydrochloride. The samples were analyzed by HPLC to quantify the peptide and Bradford assay to quantify the total protein remaining. The peptide and protein remaining in the pellets and supernatants were compared to the results obtained for the starting cleavage reactions to determine the percentages of peptide and protein in each fraction.
Reversed-phase HPLC(RP-HPLC) was carried out using an analytical C5 column (Jupiter, 150 mm×4.6 mm, 5μ, 300 Å) (Phenomenex, Torrance, Calif., USA) connected to a LC-10Avp series HPLC system (Shimadzu, Kyoto, Japan) with a mobile phase A, 0.1% (v/v) trifluoroacetic acid (TFA) in water and B, 90% (v/v) acetonitrile, 0.1% (v/v) TFA in water. Initial analysis of fusion protein and cleavage was performed using a linear gradient from 10% B to 60% B in 50 min at a flow rate of 1 ml min^−1. Peptides were analyzed, collected and quantified using a linear gradient from 10% B to 35% B in 25 min. Final peptide preparation was assessed using a linear gradient from 10% B to 90% B in 80 min. All samples were diluted 1:2 in 6 M guanidine-HCl prior to injection for the purpose of column preservation unless stated otherwise.

[3] = Stability of peptide and fusion protein in cell homogenate (TEVp cleavage reactions, HPLC/SDS-PAGE); conditions: homogenate without heat-treatment; degradation most likely by cellular proteases
Protocol: All cleavage reactions were performed with recombinant TEVp, using homogenate prepared as above, where the Trx-P11-2 content had been HPLC quantified. Cleavage reactions were performed in TEVp reaction buffer, at room temperature, in sealed tubes that had been purged of air with nitrogen. All reactions were stopped by the addition of equal volumes of either 6 M guanidine hydrochloride or 2×SDS-PAGE sample buffer and analyzed by HPLC (to quantify peptide generation) and SDS-PAGE (to confirm cleavage of the fusion protein), respectively.
Homogenate was heat-treated by incubating samples in a water bath at 55° C. for 15 min. […] The effect on the stability of the P11-2 peptide was analyzed by comparing cleavage reactions (at 0, 1, 2 and 3 h) with a final substrate concentration of 160 μM Trx-P11-2 and 8 μM TEVp, prepared with heat-treated and non heat-treated homogenate. […] The effect of salt on enzyme activity was assessed by analyzing cleavage reactions prepared with 8 μM TEVp and 320 μM Trx-P11-2, that were supplemented with either 50, 150 or 250 mM NaCl. These cleavage reactions were analyzed at 0, 1, 2 and 3 h by SDS-PAGE and HPLC. […] The supernatants were diluted with water to reduce the percentage of ethanol and analyzed by HPLC.

[4] = Solvent (ethanol/acetone) precipitation of TEVp cleaved Trx-P11-2 homogenate; peptide in supernatants and pellets by HPLC; remark: listed apart in the source

Substance | percentage of AM1 present in the precipitate ([1]; ethanol 50-75% (v/v), 23° C., 17 h, relative to AM1 in starting material) | peptide in the original lysate recovered from the supernatant ([1]; precipitation at greater than 65% (v/v) ethanol) | yield of peptide in the supernatant after precipitation ([2]; 50 mM NaCl, 75% (v/v) ethanol) [%] | yield of peptide in the supernatant after precipitation ([2]; 150 mM NaCl, 75% (v/v) ethanol) [%] | yield of peptide in the supernatant after precipitation ([2]; 250 mM NaCl, 75% (v/v) ethanol) [%] | peptide losses on acetone precipitation ([2]; 75% (v/v) acetone, 250 mM salt) | peptide yield on ethanol precipitation ([2]; 75% (v/v) ethanol, 250 mM salt) | solubility of peptide in acetone ([2]; 85% (v/v) acetone, 250 mM salt) | losses of peptide on ethanol precipitation ([2]; 85% (v/v) ethanol, 250 mM salt) [%] | yield of peptide after removal of contaminating proteins with solvent precipitation ([2]; finalized process, 1 L culture, 75% (v/v) ethanol, 250 mM NaCl) [%] | losses of peptide on precipitation ([2]; room temperature, 70-75% (v/v) ethanol or acetone, 250 mM salt) [%] | stability in homogenate [3] | solubility of purified peptide at high solvent concentrations ([4]; purified peptide, results not shown) | behaviour of peptide on solvent precipitation without salt ([4]; standard TEVp reaction buffer (10 mM Tris-Cl, 0.5 mM EDTA, 5 mM DTT, pH 8.0), in homogenate)
Ac-MKQLADSLHQLARQVRSLEHA-CONH2 (Ac-MKQLADSLHQLARQVRSLEHA-NH2) [AM1] | approximately 5% | Over 80% |  |  |  |  |  |  |  |  |  |  |  | 
QQRFQWQFEQQ [P11-2] |  |  | 55 | 81 | 95 | exceeding 30% | over 90% | almost completely insoluble | > 70 | 95 | < 5 | quickly degraded | soluble | co-precipitated with the contaminating proteins
